The values below come from paper PMC8930418.

The data set has as its target dSpCas9 (catalytically inert dCas9) (UniProt Q99ZW2). The data set is described as follows: MST.

pKd: −log10 of the molar value.

Sequence of UniProt Q99ZW2 (Q99ZW2 whole entry): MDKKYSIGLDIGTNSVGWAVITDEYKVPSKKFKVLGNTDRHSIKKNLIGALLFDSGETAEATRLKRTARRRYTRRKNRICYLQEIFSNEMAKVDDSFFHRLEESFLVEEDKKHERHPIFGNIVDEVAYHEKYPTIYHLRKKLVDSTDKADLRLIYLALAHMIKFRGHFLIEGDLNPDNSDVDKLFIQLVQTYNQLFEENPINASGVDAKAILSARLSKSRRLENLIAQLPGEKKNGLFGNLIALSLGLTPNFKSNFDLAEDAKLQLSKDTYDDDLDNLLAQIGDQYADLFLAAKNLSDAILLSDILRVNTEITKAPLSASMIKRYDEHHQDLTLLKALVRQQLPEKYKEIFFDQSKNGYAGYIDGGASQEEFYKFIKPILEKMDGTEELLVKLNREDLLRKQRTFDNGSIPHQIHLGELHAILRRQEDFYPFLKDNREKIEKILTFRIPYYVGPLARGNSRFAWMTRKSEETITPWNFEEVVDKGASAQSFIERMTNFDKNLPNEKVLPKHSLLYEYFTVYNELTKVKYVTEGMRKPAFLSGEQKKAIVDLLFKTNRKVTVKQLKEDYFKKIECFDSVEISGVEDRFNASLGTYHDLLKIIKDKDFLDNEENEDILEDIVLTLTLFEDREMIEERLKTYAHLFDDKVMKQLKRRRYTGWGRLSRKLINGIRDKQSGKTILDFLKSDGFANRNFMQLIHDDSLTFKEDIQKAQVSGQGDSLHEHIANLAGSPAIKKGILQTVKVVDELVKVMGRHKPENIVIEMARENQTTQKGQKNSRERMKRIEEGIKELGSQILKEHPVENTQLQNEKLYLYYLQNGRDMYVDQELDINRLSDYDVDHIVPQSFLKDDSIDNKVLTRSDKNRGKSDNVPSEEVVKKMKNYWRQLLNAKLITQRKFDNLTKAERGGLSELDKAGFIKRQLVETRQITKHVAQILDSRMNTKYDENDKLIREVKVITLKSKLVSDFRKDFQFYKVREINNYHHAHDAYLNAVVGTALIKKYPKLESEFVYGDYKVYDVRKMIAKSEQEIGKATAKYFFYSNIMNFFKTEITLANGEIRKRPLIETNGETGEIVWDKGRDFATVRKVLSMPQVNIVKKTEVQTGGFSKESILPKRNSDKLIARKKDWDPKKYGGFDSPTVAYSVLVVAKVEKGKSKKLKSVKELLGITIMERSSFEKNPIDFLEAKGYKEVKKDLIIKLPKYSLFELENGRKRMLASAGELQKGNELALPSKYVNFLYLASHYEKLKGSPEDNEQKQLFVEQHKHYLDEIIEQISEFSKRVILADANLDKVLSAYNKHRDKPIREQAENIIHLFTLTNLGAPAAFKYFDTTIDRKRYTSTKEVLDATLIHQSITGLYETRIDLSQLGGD

What is called pKd is the Kd on a negative log10 scale, so that one unit is a factor of ten. In the case of “GGCCCAGACTGAGCACGTGAGTTTTAGAGCTAGAAATAGCAAGTTAAAATAAGGCTAGTCCGTTATCAACTTGAAAAAGTGGCACCGAGTCGGTGCTGGAGGAAGCAGGGCTTCCTTTCCTCTGCCATCACTTATCGTCGTCATCCTTGTAATCCGTGCTCAGTCTGTCTCTCTCTTGACGCGGTTCTATCTAGTTACGCGTTAAACCAACTAGAAATTTTTT [evopreQ1 epegRNA (guide) + HEK3 dsDNA target]”, the pKd is 8.00.

“GGCCCAGACTGAGCACGTGAGTTTTAGAGCTAGAAATAGCAAGTTAAAATAAGGCTAGTCCGTTATCAACTTGAAAAAGTGGCACCGAGTCGGTGCTGGAGGAAGCAGGGCTTCCTTTCCTCTGCCATCACTTATCGTCGTCATCCTTGTAATCCGTGCTCAGTCTGTTTTTT [unmodified pegRNA (guide) + HEK3 dsDNA target]” showed a pKd of 8.09.
